This data set in a line: yeast display, Sf9 membrane polyspecificity reagent, FACS + sequencing; frameworks hold sequencing errors. Put shortly:
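A nanobody's polyreactivity label depends on the gate it was sorted from. Yeast display cells were stained with 10% biotinylated, detergent-solubilized Sf9 membrane reagent for 1 hour at 4 °C, enriched on streptavidin microbeads and sorted by FACS. The low and high (top ~1%) gates were set on anti-HA fluorescence for expression and streptavidin fluorescence for reagent binding.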
Regarding “QVQLVESGGGLVQAGCSLRLSCAASGRIFYYNTMGWYRQAPGKERELVAAINFSGDRTYYADSVKGRFTISRDNAKNTVYLQMNSLKPEDTAVYYCAAQGYWYGYQPGNFWGQGTQVTVSS”, the “polyreactivity (PSR sort gate)” value is listed as “high polyreactivity”.
Then “QVQLVESGGGLVQAGCSLRLSCAASGRSIAYNAMGWYRQAPGTERELVAAISWSGGSTYYADSVKGRFTISRDNAKNTVYLQMNSLIPEDTAVYYCAKRFAQYRYPYDYWGQGKQVTVSS”, with “high polyreactivity”.
Consider “QVQLVESGGGLVQAGCSLRLSCAASGRTFGGYALGWYRQAPGKERELVAAISRGGNTYYADSVKGRFTISRDNAKNTVYLQMNSLKPEDTAVYYCNVARGNPVPPSEYWGQGTQVTVSS”, for which the “polyreactivity (PSR sort gate)” value was “low polyreactivity”.
Regarding “QVQLVESGGGLVQAGCSLRLSCAASGRTGFNAMGWYRQAPGKERELVASIRSGGTSTYYADSVKGRFTISRDNAKNTVYLQMNSLKPEDTAVYYCYDYWGHGTQVTVSS”, the “polyreactivity (PSR sort gate)” value is listed as “low polyreactivity”.
For “QVQLVESGGGLVQAGCSLRLSCAASGSIFRAYAMGWYRHAPGKERELVAGISGSGGSTYYADSVKGRFTISRDNAKNTVYLQMNSLKPQDTAVYYCAKALSTYQRTGCYDYWGQGTQVTVSS”, the “polyreactivity (PSR sort gate)” value is “high polyreactivity”.
In the case of “QVQLVESGGGLVQAGCSLRLSCAASGSTFDNYAMGWYRQAPGKERELVAAISSSGTRTYYADSVKGRFTISRDNAKNTVYLQMNSLKPEDTAVYYCAAGGHYYSSPGYNYWGLGTQVTVSS”, the “polyreactivity (PSR sort gate)” value is listed as “high polyreactivity”.
Turning to “QVQLVESGGGLVQAGCSLRLSCAASGSTFFSNAMGWYRQAPGKFRELVAGITFSGGSTYYADSVKGRFTISRDYAKNTVFLQMNSLKPEDTAVYYCAASPPYKLVWWRRMDYWGQGTQVTVSS”, the “polyreactivity (PSR sort gate)” value is on record as “low polyreactivity”.
Then “QVQLVESGGGLVQAGCSLRLSCAASGSTFRYYPMGWYRQAPGKEREFVAAITWRDGSTYYADSVKGRFTISRDNAKNTVYLQMNSLKPEDTAVYYCAARNSHVGYYDEYYYWGQGTQVTVSS”, with “low polyreactivity”.
Then “QVQLVESGGGLVQAGCSLRLSCAASGSTLDGNAMGWYRQPPGKERELVAAISVSGGTTYYADSVKGRFTISRDNAKNNVYLQMNSLKREDTAVYYCSTEWRPRYYGTEPFDSWGQGTQVTVSS”, with “high polyreactivity”.
As for “QVQLVESGGGLVQAGCSLRLSCAASGYIFYIYAMGWYRQAPGKERELVAAITWSGDTTYYADSVKGRFTISRDNAKNTVYLQMNSLKPEDTAVYNCATYYYYPSWYLLYGEYNYWGQGTQVTVSS”, the “polyreactivity (PSR sort gate)” value is “low polyreactivity”.
For the sequence “QVQLVESGGGLVQAGCSLRLSCAATGRSFRRNTMGWYRQAPGKERELVAAISSSGSSTYYADSVKGRFTISRDNAKNTVFLQMNSLKPEDTAVYYCAARGRGQPFVRYDYWGQGTQVTVSS”, the “polyreactivity (PSR sort gate)” value is reported as “high polyreactivity”.
In the case of “QVQLVESGGGLVQAGCSLRLSCADSGLTFTFYAMGWYRQAPGKVRELVAAISTSGASTYYADSVKGRFTISRDNANNTVYLQMNSLKPEDTAVYYCAAEYSYSSYLWYDYWGQGTQVTVSS”, the “polyreactivity (PSR sort gate)” value is reported as “high polyreactivity”.
As for “QVQLVESGGGLVQAGCSLRLSCDASGFIFKVYAMGWYRQAPGKERELVASISFSGGRTYYADSVKGRFTISRDNAKNTFYLQMNSLKPEDSAVYYCNRSYVNKYYSWGQGTQVTVSS”, the “polyreactivity (PSR sort gate)” value is listed as “high polyreactivity”.
For “QVQLVESGGGLVQAGCSLRLSCDASGSIFPGNAMGWYRQAPGKEREFVAAISWSGGSTNYADSVKGRFTISRDNAKNTVYLQMNSLKPEDTAVYFCAKRFVRRDPTTQLYGKAYEYWGQGTQVTVSS”, the “polyreactivity (PSR sort gate)” value is “high polyreactivity”.
Then “QVQLVESGGGLVQAGCSLRLSCGASGSIFAYYDMGWYREAPGTEREVVAAITTRDDDTYYADSVKGRFTISRDTAKNPVYLQMNSLKPEDTAVYYCAAAWWDYGNGKYDYWGQGTQVTVSS”, with “low polyreactivity”; and “QVQLVESGGGLVQAGCSLRLSCSASGRIYYAMGWYRQADGKERELVATITRSGGRTYYADSVKGRFTISRDNAKITVYLQINSLKPEDTAVYYCAKQFGRPYVGSNSYCLTYDSWGEGTQVTVSS”, with “low polyreactivity”; and “QVQLVESGGGLVQAGCSLRLSSAASGTIFGYYTMGRYRQAPGKEREIVAAISRSGGSTYYADSVKGRFTISRDNAHNTGYLQMNSLKPEHTAVYYCNADVYWEYDYWGQGTQVTVSS”, with “low polyreactivity”.
Take “QVQLVESGGGLVQAGCSLRLSWAASGFTFAYYAMGWSRQAPGKERDLVASITSSGGSTYYADSVKGRFTISRDNAKNTVYLQMNSLKPEDTAVYYCNKAYRGVYYGYEYWGQGTQVTVSS”: the “polyreactivity (PSR sort gate)” value is “high polyreactivity”.
Then “QVQLVESGGGLVQAGCSLRLTCAASGFTFYKYAMGWYRQAPGKERELVAAISRRGTSTYYADAVKGRFTISRDNAKNTVYLQMNSLKPEDTAVYYCNRDVSLSAFDYWGQGTQVTVSS”, with “high polyreactivity”; and “QVQLVESGGGLVQAGCSLRLTCAASGSIFRTNAMGWSRQAPGKERELVAAITGSGGSTYYADSVKGRFTISRDNAKNTVYLQMNSLKPEDTAVYYCAAEFGSFVSPYNYYFWGLGTQVTVSS”, with “low polyreactivity”; and “QVQLVESGGGLVQAGCSLRLTCPASGSIIKLYAMGWYRQAPGKEREMVAAITSVGSTYYADSVKGRFTISRDNAKNTVYFQMKSLKPEDTAVYYCAASVYYLYFHAKYDYWGQGTLVTVSS”, with “low polyreactivity”.
Consider “QVQLVESGGGLVQAGCSLSISCAASGSTFFRYAMGLYRQAPGKERELVAAISKSGASTYYADSVKGSFTISRDNAKNTVYLQMNRLKPEDTAVYYCNADVKKSSAREWQYCYDYWGQGTQVTVSS”, for which the “polyreactivity (PSR sort gate)” value was “low polyreactivity”.
Regarding “QVQLVESGGGLVQAGDSLRLSCAASGIILLSYAMGWYRQAPGKERELVAAITSGGGTNYADSVKGRFTISRDNAKNTVYLQMNSLKPEDTAVYYCAVGAYAGLYYYWGQGTQVTVSS”, the “polyreactivity (PSR sort gate)” value is “low polyreactivity”.
“QVQLVESGGGLVQAGGCLRISFAASGLTFVWYGMGWYRPATGKERELVAAITSVRTTYYADSVKGRFTISRDNAKNSVYLQMTSLKAEDSGFYYCAAQWAGYGDLPWPYSVIVEFYYWGQGSQVTVSS”: the “polyreactivity (PSR sort gate)” value is recorded as “low polyreactivity”.
Turning to “QVQLVESGGGLVQAGGCLRLSCAASGFIFYVNAMGWYRLAPGKERELVAAISSSGTRTYYADSVKGRFTISRDNAKNTVYLQMNSLKPEDTAVYYCNAAQSVELGYDYWGQGTQVTVSS”, the “polyreactivity (PSR sort gate)” value is given as “high polyreactivity”.
Consider “QVQLVESGGGLVQAGGCLRLSCAASGVIFTRNVMGWYRQAPGKERELVAAISSGGRTYYADSVKGRFTISRDNAKNTVYLQMNSLKQEDTAVYYCNAGNRGVYRYDYWGQGTQVTVSS”, for which the “polyreactivity (PSR sort gate)” value is recorded as “high polyreactivity”.
Take “QVQLVESGGGLVQAGGCLRLSCAASGYIFRVYDMGWYRQAPGKERELVAAISGSGGRTYYADSVKGRFTISRDNAKNTVYLQMISLKPEDTAVYDCSAYRVSEYDYWGQGTQVTVSS”: the “polyreactivity (PSR sort gate)” value was “high polyreactivity”.
As to “QVQLVESGGGLVQAGGCLRLSCAASVRTFYYYAMGWYRQAPGKEMELVAAITSTGGSTYYADSVKGRFTISRDNAKNTVYLQMNSLKPEDTAVYYCNTDPYTTQWYTTWFEYWGQGTQVTVSS”, the “polyreactivity (PSR sort gate)” value is listed as “low polyreactivity”.
With “QVQLVESGGGLVQAGGILLLSCAASGFIFWYYTMGWYKQAPGKERELVAAINSGGSTNYPDSVKGRFTSSRDNAKNTVYLQMNSLKPEDTAVYYCAALVWYSGELFYYWGQGTQVTVSS”, the “polyreactivity (PSR sort gate)” value is “low polyreactivity”.
Consider “QVQLVESGGGLVQAGGILRISCAAYGSIFLAYVMGWYRQAPGKERELVAAISYRGGSTYYADSVKGRFTISRDNSKNTVYLQMNSLKPEDTAVYYCAAEHLWGLYNYWGQGTQVTVSS”, for which the “polyreactivity (PSR sort gate)” value is recorded as “low polyreactivity”.
Take “QVQLVESGGGLVQAGGILRLSCAASGFIFGYYGMGWYRQAPGKERELVAAISRSGGGTFYAVSVKGRFTISRDNAKNTVYLQMNSLKPEDTAVYYCNAKYYRKSGLSGAYPYYYWGQGTQVTVSS”: the “polyreactivity (PSR sort gate)” value was “high polyreactivity”.
As for “QVQLVESGGGLVQAGGILRLSCAASGFTFDFNAMGWYRQAPGKERELVAAISSGASTNYADSVKGRYTISRDNAKNTVYLQMNRVIPLDSEVYYCAVYFYGSSTRSYQARFDYWGQGTQVTVSS”, the “polyreactivity (PSR sort gate)” value was “high polyreactivity”.
With “QVQLVESGGGLVQAGGILRLSCAASGFTFSWYAMGWYRQAPGKERELVAAINADGGTTYYADSVKGRFTISRDNAKNTVYLQMNSLKPEDTAVYYCAAELSVDKYDYWGQGTQVTVSS”, the “polyreactivity (PSR sort gate)” value is given as “low polyreactivity”.
On to “QVQLVESGGGLVQAGGILRLSCAASGFTLADNTMVWYRQSPGKERELVADITSGASTYYADSVKGRFTISRDNAKNTVYLQMNSLKPEDTAVYYCAALYYWRSGYDYWGQGTQVTVSS”, for which the “polyreactivity (PSR sort gate)” value is “low polyreactivity”.
Consider “QVQLVESGGGLVQAGGILRLSCAASGIILYINAMGWYRQAPGKERELVAAITSDGSTNYADSVKGRITISRDNAKYTVYLQMNSLKPEDTAVYYCAVDLPWGTGVSQYPESDYWGQGTQVTVSS”, for which the “polyreactivity (PSR sort gate)” value was “low polyreactivity”.
As for “QVQLVESGGGLVQAGGILRLSCAASGRIFGYNAMGWYRQAPGKERELVAAIRQRAGSTNYADSVKGRFTISRDNSKNTVYLQMKSLKPEDTAVYYCAVDGNFFGEVRPYDYWGQGSQVTVSS”, the entry is “low polyreactivity”; as for “QVQLVESGGGLVQAGGILRLSCAASGRIFKTYAMGWYRQAPGKERELVAAITASGGRTYYADSVKGRFTISRDNAKNTVYLQMNSLKPEDTAVYYCAADSGNEYDYWGQGTQVTVSS”, “low polyreactivity”.
Then “QVQLVESGGGLVQAGGILRLSCAASGRIFQPYAMGWYRQAPGKERELVAAISRGGTTYYADSVKGRFTISRDNAKNTVYLQMNSLKTEDTAVYYCAAPSYYRYDYWGQGTQVTVSS”, with “high polyreactivity”; and “QVQLVESGGGLVQAGGILRLSCAASGRTFGLYAMGRYRQAPGKERELVAAITRSDGGTNYADSVKGRFTISRDNAKNTVYLQMNSLKAEDTAVYYCAVDLGYVSHVSWYAYEYWGQGTQVTVSS”, with “low polyreactivity”; and “QVQLVESGGGLVQAGGILRLSCAASGRTFLYYAMGWYRQAPGKERELVAGITSGGSTNYADSVKGRFTISRDTAKNTDYLQMNSLKPEDTAVYYCAVDQGYYRTADVNYDYWGQGTQVTVSS”, with “low polyreactivity”.
As to “QVQLVESGGGLVQAGGILRLSCAASGSIFEYNAMGRYRKPPGKERELCASISWSGGSTYYADSVKGRYTISRDNAKNTVYLQMYSLKPEATAVYYCNVRKWSRWFRESYYWGQGTQVTVSS”, the “polyreactivity (PSR sort gate)” value is reported as “high polyreactivity”.

For the origin of these results see the nanobody polyreactivity screen of Harvey et al. (2022).
